Publication PMC7954794, “Protein context shapes the specificity of SH3 domain-mediated interactions in vivo” (Nature Communications, 2021)

B1: BBC1: yeast SH3-containing protein; SH3-deleted or knockout strain (protein, UniProt P47068 1-1157, looked up)
Myosin tail …: MSEPEVPFKVVAQFPYKSDYEDDLNFEKDQEIIVTSVEDAEWYFGEYQDSNGDVIEGIFPKSFVAVQGSEVGKEAESSPNTGSTEQRTIQPEVEQKDLPEPISPETKKETLSGPVPVPAATVPVPAATVPVPAATAVSAQVQHDSSSGNGERKVPMDSPKLKARLSMFNQDITEQVPLPKSTHLDLENIPVKKTIVADAPKYYVPPGIPTNDTSNLERKKSLKENEKKIVPEPINRAQVESGRIETENDQLKKDLPQMSLKERIALLQEQQRLQAAREEELLRKKAKLEQEHERSAVNKNEPYTETEEAEENEKTEPKPEFTPETEHNEEPQMELLAHKEITKTSREADEGTNDIEKEQFLDEYTKENQKVEESQADEARGENVAEESEIGYGHEDREGDNDEEKEEEDSEENRRAALRERMAKLSGASRFGAPVGFNPFGMASGVGNKPSEEPKKKQHKEKEEEEPEQLQELPRAIPVMPFVDPSSNPFFRKSNLSEKNQPTETKTLDPHATTEHEQKQEHGTHAYHNLAAVDNAHPEYSDHDSDEDTDDHEFEDANDGLRKHSMVEQAFQIGNNESENVNSGEKIYPQEPPISHRTAEVSHDIENSSQNTTGNVLPVSSPQTRVARNGSINSLTKSISGENRRKSINEYHDTVSTNSSALTETAQDISMAAPAAPVLSKVSHPEDKVPPHPVPSAPSAPPVPSAPSVPSAPPVPPAPPALSAPSVPPVPPVPPVSSAPPALSAPSIPPVPPTPPAPPAPPAPLALPKHNEVEEHVKSSAPLPPVSEEYHPMPNTAPPLPRAPPVPPATFEFDSEPTATHSHTAPSPPPHQNVTASTPSMMSTQQRVPTSVLSGAEKESRTLPPHVPSLTNRPVDSFHESDTTPKVASIRRSTTHDVGEISNNVKIEFNAQERWWINKSAPPAISNLKLNFLMEIDDHFISKRLHQKWVVRDFYFLFENYSQLRFSLTFNSTSPEKTVTTLQERFPSPVETQSARILDEYAQRFNAKVVEKSHSLINSHIGAKNFVSQIVSEFKDEVIQPIGARTFGATILSYKPEEGIEQLMKSLQKIKPGDILVIRKAKFEAHKKIGKNEIINVGMDSAAPYSSVVTDYDFTKNKFRVIENHEGKIIQNSYKLSHMKSGKLKVFRIVARGYVGW
B2: ABP1: yeast SH3-containing protein; SH3-deleted (D) or gene-deleted (KO) strain (protein, UniProt P15891 2-592, looked up)
Actin-binding protein: ALEPIDYTTHSREIDAEYLKIVRGSDPDTTWLIISPNAKKEYEPESTGSSFHDFLQLFDETKVQYGLARVSPPGSDVEKIIIIGWCPDSAPLKTRASFAANFAAVANNLFKGYHVQVTARDEDDLDENELLMKISNAAGARYSIQTSSKQQGKASTPPVKKSFTPSKSPAPVSKKEPVKTPSPAPAAKISSRVNDNNDDDDWNEPELKERDFDQAPLKPNQSSYKPIGKIDLQKVIAEEKAKEDPRLVQKPTAAGSKIDPSSDIANLKNESKLKRDSEFNSFLGTTKPPSMTESSLKNDDDKVIKGFRNEKSPAQLWAERKAKQNSGNAETKAEAPKPEVPEDEPEGEPDVKDLKSKFEGLAASEKEEEEMENKFAPPPKKSEPTIISPKPFSKPQEPVKAEEAEQPKTDYKKIGNPLPGMHIEADNEEEPEENDDDWDDDEDEAAQPPLPSRNVASGAPVQKEEPEQEEIAPSLPSRNSIPAPKQEEAPEQAPEEEIEEEAEEAAPQLPSRSSAAPPPPPRRATPEKKPKENPWATAEYDYDAAEDNELTFVENDKIINIEFVDDDWWLGELEKDGSKGLFPSNYVSLGN
B3: YBL039C (protein, UniProt P28274 1-579, looked up)
CTP synthase 1: MKYVVVSGGVISGIGKGVLASSTGMLMKTLGLKVTSIKIDPYMNIDAGTMSPLEHGECFVLDDGGETDLDLGNYERYLGVTLTKDHNITTGKIYSHVIAKERKGDYLGKTVQIVPHLTNAIQDWIERVAKIPVDDTGMEPDVCIIELGGTVGDIESAPFVEALRQFQFKVGKENFALIHVSLVPVIHGEQKTKPTQAAIKGLRSLGLVPDMIACRCSETLDKPTIDKIAMFCHVGPEQVVNVHDVNSTYHVPLLLLEQKMIDYLHARLKLDEISLTEEEKQRGLELLSKWKATTGNFDESMETVKIALVGKYTNLKDSYLSVIKALEHSSMKCRRKLDIKWVEATDLEPEAQESNKTKFHEAWNMVSTADGILIPGGFGVRGTEGMVLAARWARENHIPFLGVCLGLQIATIEFTRSVLGRKDSHSAEFYPDIDEKNHVVVFMPEIDKETMGGSMRLGLRPTFFQNETEWSQIKKLYGDVSEVHERHRHRYEINPKMVDELENNGLIFVGKDDTGKRCEILELKNHPYYIATQYHPEYTSKVLDPSKPFLGLVAASAGILQDVIEGKYDLEAGENKFNF

Test system: Abp1 PPIs
Assay: DHFR-PCA of Abp1 SH3-swapped baits (Fig. 2B-D, S2C, S2F);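 as to Protein-protein interaction distance between Abp1 SH3-swapped baits, to ABP1: Euclidean distance between DHFR-PCA score profiles of the baits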;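 as to Protein-protein interaction distance between Abp1 SH3-swapped baits, to BEM1-2: Euclidean distance between DHFR-PCA score profiles of the baits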;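 as to Protein-protein interaction distance between Abp1 SH3-swapped baits, to BOI1: Euclidean distance between DHFR-PCA score profiles of the baits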;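 as to Protein-protein interaction distance between Abp1 SH3-swapped baits, to BZZ1-1: Euclidean distance between DHFR-PCA score profiles of the baits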
Assay type: cell-based, Saccharomyces cerevisiae
Conditions: for Protein-protein interaction distance between Abp1 SH3-swapped baits, to ABP1: Abp1 bait with swapped SH3, distance to bait with ABP1 SH3; for Protein-protein interaction distance between Abp1 SH3-swapped baits, to BBC1: distance to Abp1 bait with BBC1 SH3; for Protein-protein interaction distance between Abp1 SH3-swapped baits, to BEM1-1: distance to Abp1 bait with BEM1-1 SH3; for Protein-protein interaction distance between Abp1 SH3-swapped baits, to BEM1-2: distance to Abp1 bait with BEM1-2 SH3; for Protein-protein interaction distance between Abp1 SH3-swapped baits, to BOI1: distance to Abp1 bait with BOI1 SH3; for Protein-protein interaction distance between Abp1 SH3-swapped baits, to BOI2: distance to Abp1 bait with BOI2 SH3; for Protein-protein interaction distance between Abp1 SH3-swapped baits, to BUD14: distance to Abp1 bait with BUD14 SH3; for Protein-protein interaction distance between Abp1 SH3-swapped baits, to BZZ1-1: distance to Abp1 bait with BZZ1-1 SH3; for Protein-protein interaction distance between Abp1 SH3-swapped baits, to BZZ1-2: distance to Abp1 bait with BZZ1-2 SH3; for Protein-protein interaction distance between Abp1 SH3-swapped baits, to CDC25: distance to Abp1 bait with CDC25 SH3; for Protein-protein interaction distance between Abp1 SH3-swapped baits, to CTTN: distance to Abp1 bait with CTTN SH3; for Protein-protein interaction distance between Abp1 SH3-swapped baits, to CYK3: distance to Abp1 bait with CYK3 SH3; for Protein-protein interaction distance between Abp1 SH3-swapped baits, to DBNL: distance to Abp1 bait with DBNL SH3; for Protein-protein interaction distance between Abp1 SH3-swapped baits, to FUS1: distance to Abp1 bait with FUS1 SH3; for Protein-protein interaction distance between Abp1 SH3-swapped baits, to HCLS1: distance to Abp1 bait with HCLS1 SH3; for Protein-protein interaction distance between Abp1 SH3-swapped baits, to HOF1: distance to Abp1 bait with HOF1 SH3; for Protein-protein interaction distance between Abp1 SH3-swapped baits, to HSE1: distance to Abp1 bait with HSE1 SH3; for Protein-protein interaction distance between Abp1 SH3-swapped baits, to LSB1: distance to Abp1 bait with LSB1 SH3; for Protein-protein interaction distance between Abp1 SH3-swapped baits, to LSB3: distance to Abp1 bait with LSB3 SH3; for Protein-protein interaction distance between Abp1 SH3-swapped baits, to MYO3: distance to Abp1 bait with MYO3 SH3; for Protein-protein interaction distance between Abp1 SH3-swapped baits, to MYO5: distance to Abp1 bait with MYO5 SH3; for Protein-protein interaction distance between Abp1 SH3-swapped baits, to NBP2: distance to Abp1 bait with NBP2 SH3; for Protein-protein interaction distance between Abp1 SH3-swapped baits, to PEX13: distance to Abp1 bait with PEX13 SH3; for Protein-protein interaction distance between Abp1 SH3-swapped baits, to PIN3: distance to Abp1 bait with PIN3 SH3; for Protein-protein interaction distance between Abp1 SH3-swapped baits, to RVS167: distance to Abp1 bait with RVS167 SH3; for Protein-protein interaction distance between Abp1 SH3-swapped baits, to SDC25: distance to Abp1 bait with SDC25 SH3; for Protein-protein interaction distance between Abp1 SH3-swapped baits, to SLA1-1: distance to Abp1 bait with SLA1-1 SH3; for Protein-protein interaction distance between Abp1 SH3-swapped baits, to SLA1-2: distance to Abp1 bait with SLA1-2 SH3; for Protein-protein interaction distance between Abp1 SH3-swapped baits, to SLA1-3: distance to Abp1 bait with SLA1-3 SH3; for Protein-protein interaction distance between Abp1 SH3-swapped baits, to YSC84: distance to Abp1 bait with YSC84 SH3
In short: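 Yeast DHFR-PCA in which Abp1 baits, carrying their SH3 replaced by CRISPR–Cas9 with one of 27 yeast SH3s or human CTTN, HCLS1 or DBNL SH3s, were mated against 575 SH3-associated DHFR F[3] preys plus 40 negative controls. Four tests were run per PPI. Diploids were selected twice (48 h, 30 °C), then grown 4 days on PCA selection media.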

[1] = number of PPIs, difference, Abp1 SH3-swapped with the listed SH3, Fig2D,S2F

Row | Molecule | Protein-protein interaction distance between Abp1 SH3-swapped baits, to ABP1 (sheet Fig2C) | Protein-protein interaction distance between Abp1 SH3-swapped baits, to BBC1 (sheet Fig2C) | Protein-protein interaction distance between Abp1 SH3-swapped baits, to BEM1-1 (sheet Fig2C) | Protein-protein interaction distance between Abp1 SH3-swapped baits, to BEM1-2 (sheet Fig2C) | Protein-protein interaction distance between Abp1 SH3-swapped baits, to BOI1 (sheet Fig2C) | Protein-protein interaction distance between Abp1 SH3-swapped baits, to BOI2 (sheet Fig2C) | Protein-protein interaction distance between Abp1 SH3-swapped baits, to BUD14 (sheet Fig2C) | Protein-protein interaction distance between Abp1 SH3-swapped baits, to BZZ1-1 (sheet Fig2C) | Protein-protein interaction distance between Abp1 SH3-swapped baits, to BZZ1-2 (sheet Fig2C) | Protein-protein interaction distance between Abp1 SH3-swapped baits, to CDC25 (sheet Fig2C) | Protein-protein interaction distance between Abp1 SH3-swapped baits, to CTTN (sheet Fig2C) | Protein-protein interaction distance between Abp1 SH3-swapped baits, to CYK3 (sheet Fig2C) | Protein-protein interaction distance between Abp1 SH3-swapped baits, to DBNL (sheet Fig2C) | Protein-protein interaction distance between Abp1 SH3-swapped baits, to FUS1 (sheet Fig2C) | Protein-protein interaction distance between Abp1 SH3-swapped baits, to HCLS1 (sheet Fig2C) | Protein-protein interaction distance between Abp1 SH3-swapped baits, to HOF1 (sheet Fig2C) | Protein-protein interaction distance between Abp1 SH3-swapped baits, to HSE1 (sheet Fig2C) | Protein-protein interaction distance between Abp1 SH3-swapped baits, to LSB1 (sheet Fig2C) | Protein-protein interaction distance between Abp1 SH3-swapped baits, to LSB3 (sheet Fig2C) | Protein-protein interaction distance between Abp1 SH3-swapped baits, to MYO3 (sheet Fig2C) | further results
1 | B1 | 7.08 | 0.00 | 12.07 | 30.95 | 9.448 | 12.67 | 15.23 | 7.773 | 9.168 | 24.45 | 6.802 | 25.11 | 7.329 | 16.64 | 6.39 | 29.63 | 7.295 | 13.47 | 13.63 | 13.06 | Protein-protein interaction distance between Abp1 SH3-swapped baits, to MYO5 (sheet Fig2C): 12.56; Protein-protein interaction distance between Abp1 SH3-swapped baits, to NBP2 (sheet Fig2C): 14.24; Protein-protein interaction distance between Abp1 SH3-swapped baits, to PEX13 (sheet Fig2C): 10.86; Protein-protein interaction distance between Abp1 SH3-swapped baits, to PIN3 (sheet Fig2C): 11.25; Protein-protein interaction distance between Abp1 SH3-swapped baits, to RVS167 (sheet Fig2C): 9.304; Protein-protein interaction distance between Abp1 SH3-swapped baits, to SDC25 (sheet Fig2C): 31.85; Protein-protein interaction distance between Abp1 SH3-swapped baits, to SLA1-1 (sheet Fig2C): 27.19; Protein-protein interaction distance between Abp1 SH3-swapped baits, to SLA1-2 (sheet Fig2C): 16.91; Protein-protein interaction distance between Abp1 SH3-swapped baits, to SLA1-3 (sheet Fig2C): 13.32; Protein-protein interaction distance between Abp1 SH3-swapped baits, to YSC84 (sheet Fig2C): 14.14; PPIs gained by Abp1 - SH3-dependent PPIs gained by Abp1 [1]: 2; SH3-dependent PPIs - SH3-dependent PPIs gained by Abp1 [1]: 19; SH3-dependent PPIs gained by Abp1 (number of PPIs, Abp1 SH3-swapped with the listed SH3, DHFR-PCA, Fig2D,S2F): 0; Interactions in Abp1 (number of interactions of Abp1 carrying the named SH3, sheet FigS2A-B): 78
2 | B2 | 0.00 | 7.08 | 14.06 | 32.3 | 11.59 | 14.52 | 17.23 | 9.504 | 10.54 | 26.13 | 9.394 | 26.78 | 8.805 | 18.44 | 7.682 | 30.98 | 9.43 | 13.24 | 13.53 | 12.85 | Protein-protein interaction distance between Abp1 SH3-swapped baits, to MYO5 (sheet Fig2C): 12.37; Protein-protein interaction distance between Abp1 SH3-swapped baits, to NBP2 (sheet Fig2C): 16.16; Protein-protein interaction distance between Abp1 SH3-swapped baits, to PEX13 (sheet Fig2C): 10.96; Protein-protein interaction distance between Abp1 SH3-swapped baits, to PIN3 (sheet Fig2C): 11.43; Protein-protein interaction distance between Abp1 SH3-swapped baits, to RVS167 (sheet Fig2C): 9.548; Protein-protein interaction distance between Abp1 SH3-swapped baits, to SDC25 (sheet Fig2C): 33.14; Protein-protein interaction distance between Abp1 SH3-swapped baits, to SHO1 (distance to Abp1 bait with SHO1 SH3, sheet Fig2C): 8.989; Protein-protein interaction distance between Abp1 SH3-swapped baits, to SLA1-1 (sheet Fig2C): 28.73; Protein-protein interaction distance between Abp1 SH3-swapped baits, to SLA1-2 (sheet Fig2C): 19.01; Protein-protein interaction distance between Abp1 SH3-swapped baits, to SLA1-3 (sheet Fig2C): 13.16; Protein-protein interaction distance between Abp1 SH3-swapped baits, to YSC84 (sheet Fig2C): 13.97
3 | B3 |  |  |  |  |  |  |  |  |  |  |  |  |  |  |  |  |  |  |  |  | medrep (log2 median colony size normalized to plate background) (Fig2B, bait ABP1, label = prey, Replicates 4): 3.877
